{
  "source": "paper doi:10.1101/2022.10.03.510161",
  "key": {"[1]": {"target": "P74-26 TTP L229A variant (bacteriophage P74-26)", "assay": "light scattering of tube assembly"}, "[2]": {"target": "P74-26 tail tube protein (TTP), gp93, in the tail tube of purified virions (bacteriophage P74-26)", "assay": "cryo-EM structure"}, "[3]": {"target": "P74-26 tail tube protein (TTP), gp93, recombinant wild type (bacteriophage P74-26)", "assay": "SEC-MALS"}, "[4]": {"target": "P74-26 tail tube protein (TTP), gp93, recombinant wild type (bacteriophage P74-26)", "assay": "light scattering of tube assembly"}},
  "data": [
    {"substance": "P74-26 TTP L229A variant (natural protein)", "values": [
      {"measurement": "tube formation rate relative to WT", "setting": "[1]", "result": "10 % of the WT"}
    ]},
    {"substance": "P74-26 tail tube protein (TTP), gp93, in the tail tube of purified virions (natural protein)", "values": [
      {"measurement": "stoichiometry N", "setting": "[2]", "result": 3}
    ]},
    {"substance": "P74-26 tail tube protein (TTP), gp93, recombinant wild type (natural protein)", "values": [
      {"measurement": "mass fraction of the hexamer peak", "setting": "[3]", "result": 6, "unit": "%"},
      {"measurement": "stoichiometry N", "setting": "[3]", "result": 6},
      {"measurement": "tube growth rate at 37 °C relative to 20 °C (x the 20°C rate)", "setting": "[4]", "result": 68},
      {"measurement": "tube growth rate at 50 °C relative to 20 °C (x the 20°C rate)", "setting": "[4]", "result": 3520}
    ]}
  ]
}
